From patent US20260049143A1 (KYMAB, published 2026) come the findings set out here.

Experiment [1] deals with T1, mouse ICOS-mFc (Chimerigen) (mouse, UniProt Q9WVS0 21-141, limits assumed).
T1 construct: Bought fusion; also called mICOS; recombinant mouse ICOS protein; not shown: mouse Fc
T1 sequence: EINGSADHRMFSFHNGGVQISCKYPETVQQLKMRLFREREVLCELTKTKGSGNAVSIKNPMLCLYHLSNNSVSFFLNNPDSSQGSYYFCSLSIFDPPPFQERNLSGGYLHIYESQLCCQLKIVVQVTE
Put plainly: DELFIA ELISA, coated mouse ICOS-mFc, N=2. As to the method:
(§1) Recombinant ICOS proteins, human ICOS-mFc or mouse ICOS-mFc (Chimerigen) were diluted in 1×PBS and added to Black Hi-bind plates (Griener) at 1 μg/ml, 50 μl/well. Recombinant PD-L1 proteins, human PD-L1-Flag-His or mouse-His were diluted in 1×PBS and added to Black Hi-bind plates (Griener) at 4 μg/ml, 50 μl/well. The plates were left overnight at 4° C. The next day plates were washed 3× with 300 μl/well of 1×PBS+0.1% Tween and blocked with 200 μl/well of 1×PBS+1% BSA blocking buffer for 1 hr at RT on a plate shaker. Plates were washed 3× with 300 μl/well of 1×PBS+0.1% Tween.
(§2) However, human-PD-L1 mAb² antibodies were diluted in 1×PBS+0.1% BSA buffer and diluted 1 in 2 from a starting working concentration of 0.066 μM over an 11 point titration. Titrated antibodies were added to the plates, 50 μl/well and left to incubate for 1 hr at R.T on a plate shaker. Plates were washed 3× with 300 μl/well of 1×PBS+0.1% Tween.
(§3) DELFIA® Eu-labelled Anti-human IgG(Perkin-Elmer) was diluted 1:500 in DELFIA Assay buffer (Perkin-Elmer) and added to the assay plate (50 μl/well), left to incubate for 1 hr at RT on a plate shaker. […] After incubation, assay was read on Envision plate reader (Perkin Elmer), Time-resolved fluorescence (TRF) was measured at 615 nm.
A general note: An ELISA detects its analyte on a solid surface through an enzyme-linked reagent.

The target of experiment [2] is T1, mouse ICOS-mFc (Chimerigen). Put plainly: DELFIA ELISA, coated mouse ICOS-mFc, mean. The method, then: as §1, §2, §3
For experiment [3] the target is unchanged. Put plainly: DELFIA ELISA, coated mouse ICOS-mFc, N=3. The method, then: as §1, §2, §3
Experiment [4] addresses T2, human ICOS-mFc (Chimerigen) (human, UniProt Q9Y6W8 21-140, limits assumed).
T2 construct: Bought fusion; also called hICOS; recombinant human ICOS protein; not shown: mouse Fc
T2 sequence: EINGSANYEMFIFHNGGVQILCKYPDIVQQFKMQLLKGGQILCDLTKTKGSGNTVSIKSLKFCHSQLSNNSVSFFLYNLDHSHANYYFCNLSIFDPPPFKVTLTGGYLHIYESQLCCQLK
The experiment in a line: DELFIA ELISA, coated human ICOS-mFc, N=1. The method, then: as §1, §2, §3

In experiment [5] the target is T1, mouse ICOS-mFc (Chimerigen). Put plainly: HTRF neutralisation of mouse B7-H2 binding to mouse ICOS-mFc, average. The method, then:
(§4) 5 μl of human ICOS-mFc (Chimerigen) at 20 nM (5 nM final) or 5 μl of mouse ICOS-mFc (Chimerigen) at 4 nM (1 nM final) were added to relevant assay wells. Plate was incubated for 1 hour (hr) at room temperature (RT).
(§5) After incubation, assay was read on Envision plate reader (Perkin Elmer) using a standard HTRF protocol. 620 nm and 665 nm channel values were exported to Microsoft Excel and % Delta-F and % Neutralisation calculations performed. Titration curves and IC50 values [M] were plotted using Graphpad (Prism). IC50 values were calculated by first transforming the data using equation X=Log(X). The transformed data was then fitted using nonlinear regression, using fitting algorithm, log (inhibitor) vs. response-variable slope (four parameters).
(In general: Time-resolved FRET reads energy transfer from a long-lived donor to a nearby acceptor.)

Experiment [6] has the same target. Put plainly: HTRF neutralisation of mouse B7-H2 binding to mouse ICOS-mFc, mean as told in text (table prints 5.07). The method, then:
as §5

Experiment [7] has as its target T2, human ICOS-mFc (Chimerigen). The experiment in a line: DELFIA ELISA, coated human ICOS-mFc, N=2. The method, then: as §1, §2, §3
In experiment [8] the target is T1, mouse ICOS-mFc (Chimerigen). Put plainly: HTRF neutralisation of mouse B7-H2 binding to mouse ICOS-mFc, n3. The method, then: as §4, §5

B1: STIM003_457 (bispecific antibody, V domains shown, not shown: a dimerising Fc or GST)
VH: EVQLVESGGGVVRPGGSLRLSCVASGVTFDDYGMSWVRQAPGKGLEWVSGINWNGGDTDYSDSVKGRFTISRDNAKNSLYLQMNSLRAEDTALYYCARDFYGSGSYYHVPFDYWGQGILVTVSS
VL: EIVLTQSPGTLSLSPGERATLSCRASQSVSRSYLAWYQQKRGQAPRLLIYGASSRATGIPDRFSGDGSGTDFTLSISRLEPEDFAVYYCHQYDMSPFTFGPGTKVDIK
notes: mAb^2 IgG1; also called ST1M003_457; STIM003_457 mAb^2
Broadly, the EC50 is the concentration needed to bring the measured effect to its halfway point. A higher EC50 goes with a need for much substance. With B1, the EC50 in experiment [1] is 0.252 nM; in experiment [2] it was 0.289 nM; in experiment [3] it was 0.288 nM; in experiment [4] it was 0.51 nM.

B2: STIM001_457 (bispecific antibody, V domains shown, not shown: a dimerising Fc or GST)
VH: QVQVVQSGAEVKKPGASVKVSCKASGYTFSTFGITWVRQAPGQGLEWMGWISAYNGDTNYAQNLQGRVIMTTDTSTSTAYMELRSLRSDDTAVYYCARSSGHYYYYGMDVWGQGTTVTVSS
VL: DIVMTQSPLSLPVTPGEPASISCRSSQSLLHSNEYNYLDWYLQKPGQSPQLLIFLGSNRASGVPDRFSGSGSGTDFTLKITRVEAEDVGIYYCMQSLQTPLTFGGGTKVEIK
notes: mAb^2 IgG1; also called STIM001_457 mAb^2
A word on the IC50: it is the concentration at which inhibition is half-maximal. For B2, the results for the IC50 in experiment [5], in experiment [6] and in experiment [8] were 5.07 nM, 5.16 nM and 6.32 nM, respectively. In experiment [7], this molecule registered an EC50 of 15.3 nM.
